Assay results reported in patent publication US20220195055A1 (SHANDONG BOAN BIOTECHNOLOGY, published 2022).
Read-outs that look alike come from different tables or passages of the source. Each block holds one binder with its values, some of them ahead of it.

How the values were obtained:
[1] = target: T1, CD25 on cells (SU-DHL-1 target cells; PBMC) (UniProt P01589 22-272, limits assumed); test: cell-based or functional assay
T1 sequence (looked up): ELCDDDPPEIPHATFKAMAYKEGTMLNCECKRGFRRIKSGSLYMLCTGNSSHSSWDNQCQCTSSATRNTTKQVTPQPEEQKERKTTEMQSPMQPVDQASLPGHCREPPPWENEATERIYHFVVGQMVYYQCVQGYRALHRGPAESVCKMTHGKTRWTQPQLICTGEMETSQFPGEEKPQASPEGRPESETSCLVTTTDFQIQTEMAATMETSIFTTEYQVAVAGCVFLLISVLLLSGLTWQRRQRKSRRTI

[2] = target: T2, CD25 protein (Sino Biological, 10165-H08H) (UniProt P01589 22-213); test: SPR (BIAcore 8K); antibody captured by anti-human IgG Fc, CD25 protein as analyte, 1:1 model
T2 construct: Bought recombinant protein; It speaks elsewhere of human CD25; also called antigen CD25; IL-2Rα
T2 sequence (looked up): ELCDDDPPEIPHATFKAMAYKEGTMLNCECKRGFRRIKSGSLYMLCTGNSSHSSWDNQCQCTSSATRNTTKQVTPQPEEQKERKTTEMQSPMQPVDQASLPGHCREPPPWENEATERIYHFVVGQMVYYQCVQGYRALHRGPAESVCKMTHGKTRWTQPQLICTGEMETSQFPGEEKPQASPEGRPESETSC
Procedure: Antibody binding kinetics uses BIAcore8K instrument based on surface plasmon resonance (SRP) technology to measure. Anti-human IgG antibody amino was coupled to a CMS biosensor chip by the GE anti Human IgG Fc amino coupling kit (GE, cat # BR-1008-39) to obtain approximately 1000 response units (RU). For kinetic measurements, the CD25 protein (Sino Biological, 10165-H08H) was diluted 2-fold continuously with HBS-EP+1×(GE, BR-1008-26) buffer, starting at 50 nM, being diluted 2-fold for 4 concentration gradients and setting 0 concentration. The antibody to be detected: 2 μg/ml, sample injection time 70 s, flow rate 5 μL/min, stable for 5 s; CD25 protein: binding for 60 s, flow rate 30 μL/min, dissociation for 450 s; regeneration: regeneration was performed for 30 s with 3M MgCl₂ buffer, Startup 3 times. The association constant (ka) and dissociation constant (kd) were calculated using a simple one-to-one Languir binding model (BIAcore Evaluation Software version 3.2), and the equilibrium dissociation constant (KD) was calculated by the ratio kd/ka.

[3] = target: T2, CD25 protein (Sino Biological, …); test: ELISA; CD25 protein coated in a dilution series, antibody at one fixed concentration, anti-human IgG/HRP
Text: (§1) The results are shown in FIG. 2A to FIG. 2E and Table 2 to Table 6.

[4] = target: T1, CD25 on cells (SU-DHL-1 target cells; …); test: cell-based or functional assay; remark: listed apart in the source
[5] = target: T1, CD25 on cells (SU-DHL-1 target cells; …); test: cell-based or functional assay; remark: listed apart in the source
[6] = target: T2, CD25 protein (Sino Biological, …); test: ELISA; CD25 protein coated in a dilution series, antibody at one fixed concentration, anti-human IgG/HRP; remark: listed apart in the source
Text: as §1

[7] = target: T2, CD25 protein (Sino Biological, …); test: as above; remark: listed apart in the source
Text: as §1

[8] = target: T2, CD25 protein (Sino Biological, …); test: as above; remark: listed apart in the source
Text: as §1

[9] = target: T2, CD25 protein (Sino Biological, …); test: as above; remark: listed apart in the source
Text: as §1

% PSTAT5 in CD3 positive T cells of PBMC after IL2, with 10 µg/mL antibody [1]: 16.5%
Kd [2]: 3.79 nM
koff [2]: 0.000339 s⁻¹
kon [2]: 89600 M⁻¹ s⁻¹
EC50 [3]: 0.00226 µg/mL
B1: CD25Q8-BT942-IgG1 (antibody, V domains shown)
VH: QVQLVQSGAEVKKPGSSVKVSCKASGGTFSSDAINWVRQAPGQGLEWMGRIIPIFGVADYAQKFQGRVTLTADKSTSTAYMDLSSLRSEDTAVFYCARERGDYSNFWYFDLWGRGTLVTVSS
VL: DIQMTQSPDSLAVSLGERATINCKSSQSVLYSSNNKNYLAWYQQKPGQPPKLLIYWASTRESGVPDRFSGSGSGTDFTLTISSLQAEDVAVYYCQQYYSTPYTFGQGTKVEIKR
notes: IgG1 expressed in HEK293

% PSTAT5 in CD3 positive T cells of PBMC after IL2, with 10 µg/mL antibody [1]: 18.5%
Kd [2]: 5.19 nM
koff [2]: 0.000912 s⁻¹
kon [2]: 176000 M⁻¹ s⁻¹
EC50 [6]: 0.0106 µg/mL
EC50 [7]: 0.0141 µg/mL
EC50 [8]: 0.017 µg/mL
EC50 [9]: 0.0121 µg/mL
EC50 [3]: 0.0245 µg/mL
B2: CD25-MA251-IgG1 (antibody, V domains shown)
VH: QVQLKESGPGLVAPSQSLSITCTVSGFSLTSYGIQWVRQPPGKGLEWLGVIWAGGSTNYNSALMSRLSISKDNSKSQVFLKMNSLQTDDTAMYYCARAYGYDGSWLAYWGQGTLVTVSS
VL: QIVLSQSPAILSASPGEKVTMTCRASSSVSYMHWYQQKPGSSPKPWIFATSNLASGVPARFSGSGSGTSYSLTINRVEAEDADTYYCQQWSSNPPTFGGGTKLEIKR
notes: also called CD25Q-MA251; control antibody
EC50 of simulated killing activity (Jurkat effector reporter cells, SU-DHL-1 target cells, luminescence) [4]: 0.361 µg/mL
EC50 of simulated killing activity (Jurkat effector reporter cells, SU-DHL-1 target cells, luminescence) [5]: 0.255 µg/mL

% PSTAT5 in CD3 positive T cells of PBMC after IL2, with 10 µg/mL antibody [1]: 15.8%
Kd [2]: 3.09 nM
koff [2]: 0.00218 s⁻¹
kon [2]: 705000 M⁻¹ s⁻¹
EC50 [3]: 0.00916 µg/mL
B3: CD25Q11-CT848-IgG1 (antibody, V domains shown)
VH: QVQLQQWGAGLLKPSETLSLTCAVYGGSFSGSYWSWIRQSPRKGLEWIGEIDHSGSTIANPSLKSRITISLDTSKNQFFLQLRSMTAADTAVYYCARGEAFDIWGQGTMVTVSS
VL: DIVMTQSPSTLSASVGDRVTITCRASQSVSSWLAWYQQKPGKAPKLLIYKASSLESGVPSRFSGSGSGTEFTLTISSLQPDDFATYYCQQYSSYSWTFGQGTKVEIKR
notes: IgG1 expressed in HEK293
